{
  "source": "patent US6040149A",
  "about": "“Assay for identifying agents which act on the ceramide-activated protein kinase, kinase suppressor of ras, and methods of using said agents” (priority 1997, dated 2000)",
  "key": {"KSR": {"molecular_target": "T1, KSR (Mus musculus, UniProt Q61097)", "T1 sequence (Q61097 1-873)": "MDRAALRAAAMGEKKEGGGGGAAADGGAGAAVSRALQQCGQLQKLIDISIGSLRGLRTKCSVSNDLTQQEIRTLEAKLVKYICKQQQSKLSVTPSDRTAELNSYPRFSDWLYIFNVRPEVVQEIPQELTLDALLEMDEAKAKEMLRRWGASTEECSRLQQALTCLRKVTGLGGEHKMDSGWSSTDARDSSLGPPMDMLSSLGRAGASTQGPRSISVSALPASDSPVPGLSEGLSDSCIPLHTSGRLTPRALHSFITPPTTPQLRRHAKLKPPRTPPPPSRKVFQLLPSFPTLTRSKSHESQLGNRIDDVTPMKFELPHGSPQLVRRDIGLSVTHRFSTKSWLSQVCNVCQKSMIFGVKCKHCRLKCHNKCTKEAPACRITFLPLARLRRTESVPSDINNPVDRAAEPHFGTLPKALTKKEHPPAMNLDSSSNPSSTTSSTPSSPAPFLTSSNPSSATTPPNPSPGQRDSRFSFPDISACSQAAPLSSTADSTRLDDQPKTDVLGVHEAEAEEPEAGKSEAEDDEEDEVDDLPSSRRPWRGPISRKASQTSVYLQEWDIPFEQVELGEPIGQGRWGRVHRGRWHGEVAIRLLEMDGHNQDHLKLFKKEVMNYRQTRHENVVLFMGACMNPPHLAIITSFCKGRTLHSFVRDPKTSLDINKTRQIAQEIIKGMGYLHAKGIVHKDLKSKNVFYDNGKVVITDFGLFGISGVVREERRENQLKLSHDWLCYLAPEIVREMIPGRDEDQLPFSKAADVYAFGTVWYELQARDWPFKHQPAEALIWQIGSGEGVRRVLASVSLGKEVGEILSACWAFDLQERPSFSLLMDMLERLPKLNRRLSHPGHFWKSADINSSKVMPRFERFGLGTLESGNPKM", "experiment": "KSR activity toward Raf-1 peptides in vitro", "format": "biochemical, mouse (KSR immunoprecipitated from COS-7 cells)", "set-up": "Raf-1 peptides as substrate", "outline": "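Flag-tagged KSR immunoprecipitated from COS-7 lysate, incubated with 0.3 mM Raf-1 TTLP peptide, 10 mM MnCl2, 5 μM ATP plus [γ-32P]ATP at 22 °C, with 30 nM ceramide or other lipids; P81 filter binding and Cerenkov counting, AALP-peptide background subtracted.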"}, "Raf-1": {"tested_on": "Raf-1", "experiment": "Kinase activity of immunoprecipitated Raf-1 toward MEK1 after HL-60 cell stimulation", "format": "cell-based, human (HL-60 cells)", "description": "Recovery of MEK1 was monitored by western blot (Bottom Panel). Identical results were obtained with cells stimulated for 5 min with TNF.\nRecovery of MEK1 was monitored by western blot (Bottom Panel).\nThese studies indicate that Raf-1 is a component of the sphingomyelin pathway mediating TNF action.\nMEK1 autophosphorylation was for 45 min. An autoradiogram of MEK1 phosphorylation (top panel) and recovery of MEK1 protein by western blot (bottom panel) are shown. For western blot, proteins separated by SDS-PAGE were electrotransferred to an Immobilon PVDF membrane at 12 volts overnight at 4° C. Membranes were then blocked with 2% BSA in TBS [20 mM Tris, pH 7.6, 137 mM NaCl] for 1 hr and washed with TBST (TBS containing 0.2% Tween-20)."}, "[1]": {"tested_on": "ceramide-activated protein kinase", "settings": "for membrane-bound kinase activity, fold increase: TNF-α 30 nM"}},
  "note": "Read-outs that look alike come from different tables or passages of the source.",
  "data": [
    {"compound": "CCCCCCCCCCCCCC(=O)O[C@@H]1[C@@H](C)[C@@]2(O)[C@@H](C=C(CO)C[C@]3(O)C(=O)C(C)=C[C@@H]23)[C@@H]2C(C)(C)[C@]12OC(C)=O", "note": "[TPA, 12-0-tetradecanoylphorbol-13-acetate]", "values": [
      {"measurement": "effect on activation of KSR towards Raf-peptide", "setting": "KSR; 30 nM", "value": "no effect"},
      {"measurement": "increase of Raf-1 activity", "setting": "Raf-1; TPA 100 ng/ml, 10 min, maximum", "value": "4 fold of control"}
    ]},
    {"compound": "CCCCCCCCCCCCC/C=C/[C@@H](O)[C@@H](N)CO", "note": "[sphingosine]", "values": [
      {"measurement": "effect on kinase activity in membranes of stimulated HL-60 cells", "setting": "[1]; cholera toxin 10 nM, retinoic acid 0.5 μM, butyrate 0.5 mM", "value": "similarly as effective as C8-cer"},
      {"measurement": "activation of KSR", "setting": "KSR", "value": "fail to activate KSR"}
    ]},
    {"compound": "TNF-α", "values": [
      {"measurement": "kinase activity, fold of control", "setting": "[1]; 3 pM TNF-α, 60 minutes", "value": "1.1 fold of control"},
      {"measurement": "maximal kinase activity, fold of control", "setting": "[1]; 30 nM TNF-α, 60 minutes", "value": "1.8 fold of control"},
      {"measurement": "ED50 for kinase activity", "setting": "[1]; 60 minutes of stimulation", "value": "≈ 200 pM"},
      {"measurement": "membrane-bound kinase activity, fold increase", "setting": "[1]; 5 minutes", "value": 1.5, "unit": "fold"},
      {"measurement": "membrane-bound kinase activity, fold increase", "setting": "[1]; 2 hours", "value": 2.2, "unit": "fold"},
      {"measurement": "membrane-bound kinase activity, fold increase", "setting": "[1]; 2 hours, listed as TNF", "value": 2, "unit": "fold"},
      {"measurement": "kinase activity of Raf-1 toward MEK1", "setting": "Raf-1; HL-60 cells treated with TNF or ceramide analogs", "value": "10-20 fold"}
    ]}
  ]
}
